This is an account of results in PMC6075780, “Interaction of lipoprotein QseG with sensor kinase QseE in the periplasm controls the phosphorylation state of the two-component system QseE/QseF in Escherichia coli” (PLoS Genetics, 2018).

One assay deals with T18-QseE (pYG246). The experiment in a line: BACTH assay (bacterial two-hybrid, β-galactosidase read-out), homodimerization. Conditions: reporter strain BTH101; plasmids pYG246/pYG199_TM1; parent: est. 3600; read off a plot.
Assay [1] addresses T1, QseG-Strep (E. coli K-12, UniProt P0AD44 26-237, Cys26 predicted by the paper to be lipidated).
T1 sequence (looked up): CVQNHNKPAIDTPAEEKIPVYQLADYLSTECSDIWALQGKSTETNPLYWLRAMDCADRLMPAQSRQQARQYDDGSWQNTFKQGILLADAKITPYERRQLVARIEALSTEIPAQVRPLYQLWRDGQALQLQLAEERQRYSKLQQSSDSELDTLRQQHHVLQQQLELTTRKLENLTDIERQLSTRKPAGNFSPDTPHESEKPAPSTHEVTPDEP
Kind of assay: cell-based or functional assay.

Assay [2] has as its target T1, QseG-Strep. Kind of assay: pull-down; bait and prey from two compatible plasmids in E. coli Z970 (1 mM IPTG, 0.2% arabinose, 3 h); cleared lysates with MagStrep type3 XT beads 60 min at 4°C, washed 4× with buffer W; Western blot. The settings on record: partners not purified. (In general: In western blotting, separated proteins are transferred to a membrane and probed.)

For the molecule “T25-QseE (from UniProt P52101) F19L; L21H; I22R; L23P; L24P”, in the assay with T18-QseE (pYG246), the response amounted to 1000 Miller units.

B1: QseE-S58N-3×FLAG (natural protein, E. coli K-12, UniProt P52101 1-475, looked up)
chain: MKRWPVFPRSLRQLVMLAFLLILLPLLVLAWQAWQSLNALSDQAALVNRTTLIDARRNEAMTNAALEMERSYRQYCVLDDPTLAKVYQSQRKRYSEMLDAHAGVLPDDKLYQALRQDLHNLAQLQCNNSGPDAAAAARLEAFASANTEMVQATRTVVFSRGQQLQREIAERGQYFGWQSLVLFLVSLVMVLLFTRMIIGPVKNIERMINRLGEGRSLGNSVSFSGPSELRSVGQRILWLSERLSWLESQRHQFLRHLSHELKTPLASMREGTELLADQVVGPLTPEQKEVVSILDSSSRNLQKLIEQLLDYNRKQADSAVELENVELAPLVETVVSAHSLPARAKMMHTDVDLKATACLAEPMLLMSVLDNLYSNAVHYGAESGNICLRSSLHGARVYIDVINTGTPIPQEERAMIFEPFFQGSHQRKGAVKGSGLGLSIARDCIRRMQGELYLVDESGQDVCFRIELPSSKNTK
notes: Histidine kinase QseE of E. coli K-12 with the S58N exchange in the periplasmic loop; also called QseE-S58N variant; source: E. coli strain Z970, from plasmid pYG318-S58N, in lysate; not shown: 3×FLAG, C-terminal, kept
As to B1, the “fold decrease in glmY'-lacZ β-galactosidase activity of the ΔqseE strain Z970 complemented with plasmid-encoded QseE-S58N (pYG221-S58N), against wild-type QseE (pYG221)” value with QseG-Strep [1] is 3 fold. Besides, the “fold reduction of co-purifying protein against wild-type QseE-3×FLAG” value with QseG-Strep [2] was approximately 3 fold.
